Substrate in data set [1]: CC(C)=CCC/C(C)=C/CC/C(C)=C/CC/C=C(\C)CC/C=C(\C)CCC=C(C)C
Nature of the data set: purified protein, by the assay type. The conditions noted are these: varied squalene, saturating FAD.

Substrate in data set [2]: CC(C)=CCC/C(C)=C/CC/C(C)=C/CC/C=C(\C)CC/C=C(\C)CCC=C(C)C
Nature of the data set: cells, lysate or membranes named. Conditions: other: SQLE baculosome; varied squalene, saturating FAD; pH 7.0.

B1: recombinant N-terminally truncated SQLE (118–574) (Homo sapiens) (protein)
chain: TSSQNDPEVIIVGAGVLGSALAAVLSRDGRKVTVIERDLKEPDRIVGEFLQPGGYHVLKDLGLGDTVEGLDAQVVNGYMIHDQESKSEVQIPYPLSENNQVQSGRAFHHGRFIMSLRKAAMAEPNAKFIEGVVLQLLEEDDVVMGVQYKDKETGDIKELHAPLTVVADGLFSKFRKSLVSNKVSVSSHFVGFLMKNAPQFKANHAELILANPSPVLIYQISSSETRVLVDIRGEMPRNLREYMVEKIYPQIPDHLKEPFLEATDNSHLRSMPASFLPPSSVKKRGVLLLGDAYNMRHPLTGGGMTVAFKDIKLWRKLLKGIPDLYDDAAIFEAKKSFYWARKTSHSFVVNILAQALYELFSATDDSLHQLRKACFLYFKLGGECVAGPVGLLSVLSPNPLVLIGHFFAVAIYAVYFCFKSEPWITKPRALLSSGAVLYKACSVIFPLIYSEMKYMVH
With B1, in data set [1] (other: SQLE (118–574), pH 8.0), the Km was 1.9 ± 0.4 µM, the kcat came out at 0.0348 s⁻¹ and the kcat/Km is 18300 M⁻¹ s⁻¹.

B2: baculosome-derived full-length SQLE (Homo sapiens) (protein)
chain: MWTFLGIATFTYFYKKFGDFITLANREVLLCVLVFLSLGLVLSYRCRHRNGGLLGRQQSGSQFALFSDILSGLPFIGFFWAKSPPESENKEQLEARRRRKGTNISETSLIGTAACTSTSSQNDPEVIIVGAGVLGSALAAVLSRDGRKVTVIERDLKEPDRIVGEFLQPGGYHVLKDLGLGDTVEGLDAQVVNGYMIHDQESKSEVQIPYPLSENNQVQSGRAFHHGRFIMSLRKAAMAEPNAKFIEGVVLQLLEEDDVVMGVQYKDKETGDIKELHAPLTVVADGLFSKFRKSLVSNKVSVSSHFVGFLMKNAPQFKANHAELILANPSPVLIYQISSSETRVLVDIRGEMPRNLREYMVEKIYPQIPDHLKEPFLEATDNSHLRSMPASFLPPSSVKKRGVLLLGDAYNMRHPLTGGGMTVAFKDIKLWRKLLKGIPDLYDDAAIFEAKKSFYWARKTSHSFVVNILAQALYELFSATDDSLHQLRKACFLYFKLGGECVAGPVGLLSVLSPNPLVLIGHFFAVAIYAVYFCFKSEPWITKPRALLSSGAVLYKACSVIFPLIYSEMKYMVH
For B2, in data set [2], the Km is on record as 3.3 ± 0.7 µM, the kcat worked out at 0.0233 s⁻¹ and the catalytic efficiency (kcat/Km) came to 7080 M⁻¹ s⁻¹.

B3: endogenous SQLE in human liver microsomes (Homo sapiens) (protein)
chain: MWTFLGIATFTYFYKKFGDFITLANREVLLCVLVFLSLGLVLSYRCRHRNGGLLGRQQSGSQFALFSDILSGLPFIGFFWAKSPPESENKEQLEARRRRKGTNISETSLIGTAACTSTSSQNDPEVIIVGAGVLGSALAAVLSRDGRKVTVIERDLKEPDRIVGEFLQPGGYHVLKDLGLGDTVEGLDAQVVNGYMIHDQESKSEVQIPYPLSENNQVQSGRAFHHGRFIMSLRKAAMAEPNAKFIEGVVLQLLEEDDVVMGVQYKDKETGDIKELHAPLTVVADGLFSKFRKSLVSNKVSVSSHFVGFLMKNAPQFKANHAELILANPSPVLIYQISSSETRVLVDIRGEMPRNLREYMVEKIYPQIPDHLKEPFLEATDNSHLRSMPASFLPPSSVKKRGVLLLGDAYNMRHPLTGGGMTVAFKDIKLWRKLLKGIPDLYDDAAIFEAKKSFYWARKTSHSFVVNILAQALYELFSATDDSLHQLRKACFLYFKLGGECVAGPVGLLSVLSPNPLVLIGHFFAVAIYAVYFCFKSEPWITKPRALLSSGAVLYKACSVIFPLIYSEMKYMVH
Consider B3, for which the Michaelis constant (Km) in data set [1] (other: HLMs) worked out at 2.9 ± 0.2 µM.
